Data taken from patent US20180362668A1 (JIANGSU ALPHAMAB BIOPHARMACEUTICALS, published 2018).

Columns and labels:
[1] = biological target: the molecule itself; assay: non-reducing SDS-PAGE densitometry of Protein A-purified co-transfection product; chain A:chain B vectors 1:1
Source text: The cotransfection ratio of recombinant expression vector of the chain A to that of the chain B was 1:1.

[2] = biological target: the molecule itself; assay: as above; remark: listed apart in the source
Source text: (§1) The cotransfection ratio of recombinant expression vector of the chain A to that of the chain B was 4:1, 1:1 and 1:4.

[3] = biological target: the molecule itself; assay: as above; remark: listed apart in the source
[4] = biological target: the molecule itself; assay: non-reducing SDS-PAGE of Protein A-purified co-transfection product; chain A:chain B vectors 4:1
Source text: (§2) The respective transient transfection products were obtained through Protein A affinity chromatography.

[5] = biological target: the molecule itself; assay: non-reducing SDS-PAGE of Protein A-purified co-transfection product; chain A:chain B vectors 1:4
Source text: as §2

[6] = biological target: the molecule itself; assay: non-reducing SDS-PAGE densitometry of Protein A-purified co-transfection product; chain A:chain B vectors 4:1
Source text: as §1

[7] = biological target: the molecule itself; assay: non-reducing SDS-PAGE densitometry of Protein A-purified co-transfection product; chain A:chain B vectors 1:4
Source text: as §1

[8] = biological target: the molecule itself; assay: non-reducing SDS-PAGE densitometry of Protein A-purified co-transfection product; chain A:chain B vectors 4:1; remark: listed apart in the source
Source text: (§3) The cotransfection ratio of recombinant expression vector of the chain A to that of the chain B was 4:1, 1:1 and 1:4. The transiently expressed culture supernatant was collected after 5-6 days of cultivation.

[9] = biological target: the molecule itself; assay: non-reducing SDS-PAGE densitometry of Protein A-purified co-transfection product; chain A:chain B vectors 1:1; remark: listed apart in the source
Source text: as §3

[10] = biological target: the molecule itself; assay: non-reducing SDS-PAGE densitometry of Protein A-purified co-transfection product; chain A:chain B vectors 1:4; remark: listed apart in the source
Source text: as §3

B1: ScFv-Fc fusion protein chain A with Y349C + T366W + K409A (Fc fusion)
chain: EVQLLESGGGVVQPGRSLRLSCIASGFTFSSYPMTWVRQAPGKGLEWVASISYDGSYKYKADSMKGRLTISRDNSKNTLYLEMNSLTAEDTAVYYCARTAFFNAYDFWGQGTLVTVSSASTKGPSVGGGGSGGGGSEIVMTQSPATLSVSPGERATLSCRASQSVRSNLAWYQQKPGQAPRLLIYAASTRATGIPARFSGSGSGTEFTLTISSLQSEDFAVYYCQQYNEWFRTSGQGTKVEIKRDKTHTCPPCPAPELLGGPSVFLFPPKPKDTLMISRTPEVTCVVVDVSHENPEVKFNWYVDGVEVHNAKTKPREEQYNSTYRVVSVLTVLHQDWLNGKEYKCKVSNKALPAPIEKTISKAKGQPREPQVCTLPPSRDELTKNQVSLWCLVKGFYPSDIAVEWESNGQPENNYKTTPPVLDSDGSFFLYSALTVDKSRWQQGNVFSCSVMHEALHNHYTQKSLSLSPGK
notes: Positions are EU index; also called combination 4 chain A
- ScFv-Fc homodimer (%) [1]: 21%
- ScFv-Fc homodimer (%) [2]: 13%
- ScFv-Fc homodimer (%) [3]: 10%
- ScFv-Fc homodimer (%) [4]: 46%
- ScFv-Fc homodimer (%) [5]: 4%
- ScFv-Fc homodimer (%) [6]: 46%
- ScFv-Fc homodimer (%) [7]: < 1%

B2: ScFv-Fc fusion protein chain A with Y349C + T366W (Fc fusion)
chain: EVQLLESGGGVVQPGRSLRLSCIASGFTFSSYPMTWVRQAPGKGLEWVASISYDGSYKYKADSMKGRLTISRDNSKNTLYLEMNSLTAEDTAVYYCARTAFFNAYDFWGQGTLVTVSSASTKGPSVGGGGSGGGGSEIVMTQSPATLSVSPGERATLSCRASQSVRSNLAWYQQKPGQAPRLLIYAASTRATGIPARFSGSGSGTEFTLTISSLQSEDFAVYYCQQYNEWFRTSGQGTKVEIKRDKTHTCPPCPAPELLGGPSVFLFPPKPKDTLMISRTPEVTCVVVDVSHENPEVKFNWYVDGVEVHNAKTKPREEQYNSTYRVVSVLTVLHQDWLNGKEYKCKVSNKALPAPIEKTISKAKGQPREPQVCTLPPSRDELTKNQVSLWCLVKGFYPSDIAVEWESNGQPENNYKTTPPVLDSDGSFFLYSKLTVDKSRWQQGNVFSCSVMHEALHNHYTQKSLSLSPGK
notes: also called combination KH chain A; combination 1 chain A
- ScFv-Fc homodimer (%) [4]: 52%
- ScFv-Fc homodimer (%) [5]: 10%

B3: ScFv-Fc fusion protein chain A with Y349C + T366W + K409E (Fc fusion)
chain: EVQLLESGGGVVQPGRSLRLSCIASGFTFSSYPMTWVRQAPGKGLEWVASISYDGSYKYKADSMKGRLTISRDNSKNTLYLEMNSLTAEDTAVYYCARTAFFNAYDFWGQGTLVTVSSASTKGPSVGGGGSGGGGSEIVMTQSPATLSVSPGERATLSCRASQSVRSNLAWYQQKPGQAPRLLIYAASTRATGIPARFSGSGSGTEFTLTISSLQSEDFAVYYCQQYNEWFRTSGQGTKVEIKRDKTHTCPPCPAPELLGGPSVFLFPPKPKDTLMISRTPEVTCVVVDVSHENPEVKFNWYVDGVEVHNAKTKPREEQYNSTYRVVSVLTVLHQDWLNGKEYKCKVSNKALPAPIEKTISKAKGQPREPQVCTLPPSRDELTKNQVSLWCLVKGFYPSDIAVEWESNGQPENNYKTTPPVLDSDGSFFLYSELTVDKSRWQQGNVFSCSVMHEALHNHYTQKSLSLSPGK
notes: Positions are EU index; also called combination 3 chain A
- ScFv-Fc homodimer (%) [3]: 25%

B4: ScFv-Fc fusion protein chain A with Y349C + T366W + F405K (Fc fusion)
chain: EVQLLESGGGVVQPGRSLRLSCIASGFTFSSYPMTWVRQAPGKGLEWVASISYDGSYKYKADSMKGRLTISRDNSKNTLYLEMNSLTAEDTAVYYCARTAFFNAYDFWGQGTLVTVSSASTKGPSVGGGGSGGGGSEIVMTQSPATLSVSPGERATLSCRASQSVRSNLAWYQQKPGQAPRLLIYAASTRATGIPARFSGSGSGTEFTLTISSLQSEDFAVYYCQQYNEWFRTSGQGTKVEIKRDKTHTCPPCPAPELLGGPSVFLFPPKPKDTLMISRTPEVTCVVVDVSHENPEVKFNWYVDGVEVHNAKTKPREEQYNSTYRVVSVLTVLHQDWLNGKEYKCKVSNKALPAPIEKTISKAKGQPREPQVCTLPPSRDELTKNQVSLWCLVKGFYPSDIAVEWESNGQPENNYKTTPPVLDSDGSFKLYSKLTVDKSRWQQGNVFSCSVMHEALHNHYTQKSLSLSPGK
notes: Positions are EU index; also called combination 2 chain A
- ScFv-Fc homodimer (%) [8]: 28%
- ScFv-Fc homodimer (%) [1]: 17%
- ScFv-Fc homodimer (%) [9]: 9%
- ScFv-Fc homodimer (%) [3]: 10%
- ScFv-Fc homodimer (%) [10]: < 1%
- ScFv-Fc homodimer (%) [4]: 23%
- ScFv-Fc homodimer (%) [5]: < 1%

B5: ScFv-Fc fusion protein chain A with T366W + F405K + Y349D + S354D (Fc fusion)
chain: EVQLLESGGGVVQPGRSLRLSCIASGFTFSSYPMTWVRQAPGKGLEWVASISYDGSYKYKADSMKGRLTISRDNSKNTLYLEMNSLTAEDTAVYYCARTAFFNAYDFWGQGTLVTVSSASTKGPSVGGGGSGGGGSEIVMTQSPATLSVSPGERATLSCRASQSVRSNLAWYQQKPGQAPRLLIYAASTRATGIPARFSGSGSGTEFTLTISSLQSEDFAVYYCQQYNEWFRTSGQGTKVEIKRDKTHTCPPCPAPELLGGPSVFLFPPKPKDTLMISRTPEVTCVVVDVSHENPEVKFNWYVDGVEVHNAKTKPREEQYNSTYRVVSVLTVLHQDWLNGKEYKCKVSNKALPAPIEKTISKAKGQPREPQVDTLPPDRDELTKNQVSLWCLVKGFYPSDIAVEWESNGQPENNYKTTPPVLDSDGSFKLYSKLTVDKSRWQQGNVFSCSVMHEALHNHYTQKSLSLSPGK
notes: Positions are EU index; also called combination 18 chain A
- ScFv-Fc homodimer (%) [8]: 29%
- ScFv-Fc homodimer (%) [9]: 9%
- ScFv-Fc homodimer (%) [10]: 5%
